The source of these data is US20260183411A1, “TARGETING SORTILIN” (priority 2024, published 2026).

A short description of the series: Maximum tolerated dose (MTD) study. Type of series: in vivo, mouse. As to the method: BALB/c Nude mice, female, 6-8 weeks, weighing approximately 18-22 g were purchased from the Shanghai SLAC Laboratory Animal Co., LTD. MTD studies were conducted at WuXi AppTec and the care and use of animals was conducted in accordance with the regulations of the Association for Assessment and Accreditation of Laboratory Animal Care (AAALAC). Two MTD studies were performed (a) a low dose study with doses ranging from 0.1, 0.5, 1 and 3 mg/kg and (b) a high dose study with doses ranging from 3, 5, 10 mg/kg. Dosing volume was determined based on body weight (10 ul/g) and PDCs were dissolved in 25 mM Histidine 10% sucrose pH 7 and administered i.v. at a single dose at day 0. The treatment and observation were conducted up to 7 days and MTD was defined by ≥20% body weight loss. Body weights were measured daily, death and observed clinical signs were recorded.
Doses of 3, 5, and 10 mg/kg were administered. MTD was defined by ≥20% body weight loss and body weight measured daily.

For the compound `CC[C@H](C)[C@@H]([C@@H](CC(=O)N1CCC[C@H]1[C@H](OC)[C@@H](C)C(=O)N[C@H](C)[C@@H](O)c1ccccc1)OC)N(C)C(=O)[C@@H](NC(=O)[C@H](C(C)C)N(C)C(=O)OCc1ccc(NC(=O)[C@H](CCCNC(N)=O)NC(=O)[C@@H](NC(=O)CCCC(=O)NCCC(=O)N(C)CC(=O)N(C)CC(=O)N(C)CC(=O)N(C)CC(=O)N[C@@H](C)C(=O)N2CCC[C@H]2C(=O)N[C@@H](CCCNC(=N)N)C(=O)N[C@@H](Cc2c[nH]c3ccccc23)C(=O)N[C@@H](CC(=O)O)C(=O)N[C@@H](C)C(=O)N2CCC[C@H]2C(=O)N[C@@H](CC(C)C)C(=O)N[C@@H](CCCNC(=N)N)C(=O)N[C@@H](CC(=O)O)C(=O)N2CCC[C@H]2C(=O)N[C@@H](C)C(=O)N[C@@H](CC(C)C)C(=O)N[C@@H](CCCNC(=N)N)C(=O)N[C@@H](CCC(N)=O)C(=O)N[C@@H](CC(C)C)C(=O)N[C@@H](CC(C)C)C(=O)O)C(C)C)cc1)C(C)C` [PRGN_WT_PDC], the “sustained body weight loss” value (5 mg/kg i.v. single dose, after 48 hrs, recovered at Day 7) is approximately 15%. Besides, for the setting “10 mg/kg i.v. single dose”, the toxicity result is on record as “significant toxicity”. Further, the body weight loss result (10 mg/kg i.v. single dose, after 48 hrs, BALB/c nude mice) is “greater than 20%”.
